Assay results published in patent US20090304746A1.
Where two headings read alike, the source gives them in different places.

Assays:
HLA-A*1101 (human) [1] = biological target: HLA-A*1101 (human)
HLA-A*3101 (human) [2] = test: competition with 125I-labelled standard peptide on purified HLA, gel filtration
HLA-A*6801 (human) [3] = test: as above
HLA-A*0301 (human) [4] = test: as above
HLA-A*3301 (human) [5] = biological target: HLA-A*3301 (human)
HLA-A*2401 (human) = test: competition with 125I-labelled standard peptide for purified HLA, gel filtration
HLA-A*3301 (human) [6] = test: competition with 125I-labeled standard peptide on purified HLA, gel filtration
HLA-A*1101 (human) [7] = test: as above
HLA-A*3101 (human) [8] = test: as above
HLA-A*6801 (human) [9] = test: as above
HLA-A*0301 (human) [10] = test: as above

B1: … (peptide)
peptide: LSNSLLRHH
modifications: not checked
HLA-A*1101 (human) [1]
  binding affinity ratio (IC50 of standard peptide / IC50 of test peptide): 0.0001

B2: HCV peptide … (polyprotein position 1236) (peptide)
peptide: PTGSGKSTK
modifications: not checked
HLA-A*3101 (human) [2]
  binding affinity ratio (IC50 of standard peptide / IC50 of test peptide): 0.0008
HLA-A*6801 (human) [3]
  binding affinity ratio (IC50 of standard peptide / IC50 of test peptide): 0.0002
HLA-A*0301 (human) [4]
  binding affinity ratio (IC50 of standard peptide / IC50 of test peptide): 0.0002
HLA-A*3301 (human) [5]
  binding affinity ratio (IC50 of standard peptide / IC50 of test peptide): 0.0006

B3: … (peptide)
peptide: NIVDVQYLY
modifications: not checked
HLA-A*2401 (human)
  binding affinity ratio (IC50 of standard peptide / IC50 of test peptide): 0.0001

B4: HCV peptide … (HCV polyprotein position 1592) (peptide)
peptide: VAYQATVCAR
modifications: not checked
HLA-A*3301 (human) [6]
  binding affinity ratio (IC50 of standard peptide / IC50 of test peptide): 0.072
HLA-A*1101 (human) [7]
  binding affinity ratio (IC50 of standard peptide / IC50 of test peptide): 0.0036
HLA-A*3101 (human) [8]
  binding affinity ratio (IC50 of standard peptide / IC50 of test peptide): 0.068
HLA-A*6801 (human) [9]
  binding affinity ratio (IC50 of standard peptide / IC50 of test peptide): 0.028
HLA-A*0301 (human) [10]
  binding affinity ratio (IC50 of standard peptide / IC50 of test peptide): 0.0005
